Experimental findings from PMC10908866, “A structural and dynamic visualization of the interaction between MAP7 and microtubules” (Nature Communications, 2024) are described below.

To fix the notation:
B1: MAP7 microtubule-binding domain (MTBD), residues 59-170 (domain or fragment, human, UniProt Q14244 59-170, looked up)
chain: PVLRVDDRQRLARERREEREKQLAAREIVWLEREERARQHYEKHLEERKKRLEEQRQKEERRRAAVEEKRRQRLEEDKERHEAVVRRTMERSQKPKQKHNRWSWGGSLHGSP
notes: Uniformly [13C-15N] labelled in the NMR experiments; The deposited model PDB 8RC1 holds only a poly-alanine backbone of residues 63-151; also called MAP7 MTBD; MT-associated protein 7 MTBD; not shown: His-Tag, N-terminal, cleaved
B2: NHS-fluorescein-labelled α-tubulin C-terminal tail peptide (peptide)
peptide: SVEGEGEEEGEEY
modifications: also: NHS-fluorescein attached, position not given here
notes: C-terminal tail of HeLa S3 α-tubulin, residues Ser 439-Tyr 451; also called fluorescein labelled α-CTT; NHS-fluorescein-labelled α-CTT; source: synthetic peptide, bought: Sigma-Aldrich; labelled with NHS-fluorescein and dialysed

Where no end group is shown, it is not given here.

Assay [1] deals with T1, microtubules polymerised from porcine brain α/β-tubulin (porcine, UniProt P02550 1-451; P02554 1-445).
T1 construct: α-tubulin of porcine brain tubulin; β-tubulin of porcine brain tubulin; Polymer of α/β-tubulin heterodimers (13 or 14 protofilaments in cryo-EM); Brain tubulin is a mixture of isotypes; For ITC and NMR samples the methods say only 'lyophilized tubulin (Cytoskeleton)' without species; also called MTs; MT; source: bought: Cytoskeleton (porcine brain tubulin, Cat No. T240; lyophilized tubulin), …
The assay can be described thus: ITC; 150 µM MAP7 MTBD titrated in 2 µL steps to 164 µL of 15 µM Taxol-stabilized MT; 37 °C; NMR buffer (40 mM NaPi pH 6.5, 150 mM NaCl) with 1 mM β-ME and 1 mM GTP; duplicates. The note with it: both partners purified. Background: ITC needs no label: the signal is the heat of the interaction.

Assay [2] deals with B1. Description: fluorescence polarisation; fluorescence anisotropy; 1 µM NHS-fluorescein-labelled α-CTT, MAP7 MTBD 200 to 0 µM, 384-well plate; 40 mM NaPi pH 6.5, 150 mM NaCl, 1 mM DTT; fit with DynaFit. The note with it: both partners purified.

T1 sequence (P02550 whole entry, chain 1 of 2): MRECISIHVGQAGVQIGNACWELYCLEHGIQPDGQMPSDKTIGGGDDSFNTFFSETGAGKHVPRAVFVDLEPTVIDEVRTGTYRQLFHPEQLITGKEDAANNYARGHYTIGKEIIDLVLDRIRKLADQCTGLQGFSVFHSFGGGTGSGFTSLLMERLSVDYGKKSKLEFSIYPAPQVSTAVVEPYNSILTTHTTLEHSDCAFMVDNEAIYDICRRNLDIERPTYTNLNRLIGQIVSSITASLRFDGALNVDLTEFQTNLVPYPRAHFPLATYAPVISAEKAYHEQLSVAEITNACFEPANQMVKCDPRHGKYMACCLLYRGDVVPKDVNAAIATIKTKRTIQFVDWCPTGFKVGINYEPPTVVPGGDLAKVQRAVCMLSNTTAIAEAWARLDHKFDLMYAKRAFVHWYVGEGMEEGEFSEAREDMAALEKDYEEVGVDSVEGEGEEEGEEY
T1 sequence (P02554 whole entry, chain 2 of 2): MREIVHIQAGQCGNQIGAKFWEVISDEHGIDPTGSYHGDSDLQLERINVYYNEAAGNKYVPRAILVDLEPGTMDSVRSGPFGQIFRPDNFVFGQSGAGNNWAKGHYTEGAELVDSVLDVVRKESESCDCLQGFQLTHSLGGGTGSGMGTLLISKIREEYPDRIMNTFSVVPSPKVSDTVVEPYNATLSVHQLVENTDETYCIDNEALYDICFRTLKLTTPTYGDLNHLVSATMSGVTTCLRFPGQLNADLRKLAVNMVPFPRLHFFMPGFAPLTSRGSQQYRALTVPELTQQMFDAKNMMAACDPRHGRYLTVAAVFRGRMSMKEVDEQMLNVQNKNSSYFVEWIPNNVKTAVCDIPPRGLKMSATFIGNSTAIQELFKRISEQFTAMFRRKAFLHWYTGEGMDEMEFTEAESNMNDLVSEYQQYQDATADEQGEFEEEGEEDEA

A word on the Kd: it is the constant that tells how readily two partners part at equilibrium. Low values mean higher affinity, high ones lower affinity. As a reminder, the stoichiometry N is a count of units in the complex or per binding partner. For B1, in assay [1], the Kd was found to be 0.94 µM and the “stoichiometry N” value was determined as 0.51 ± 0.09.
In assay [2], B2 had a Kd of 91.3 µM.
